This assay deals with lysine decarboxylase CadA from Vibrio vulnificus (Vibrio vulnificus). Briefly: SEC; Sephacryl S-300 HR column on FPLC, 0.5 mL/min, 50 mM MES/100 mM NaCl pH 6.5; standards IgM 970 kDa, thyroglobulin 669 kDa, ferritin 440 kDa, catalase 232 kDa, aldolase 140 kDa; self-association of the purified enzyme. (SEC sorts molecules by how far they enter the pores of the column.)

Take “lysine decarboxylase CadA from Vibrio vulnificus (from UniProt A0A3Q0L4X5 1-797) (enzyme)”: the stoichiometry N turned out to be 10.

What is called stoichiometry N is the number of molecules, sites or subunits per partner or assembly.

Source of the values: publication PMC6297170.
